Laboratory results reported in patent US20250296995A1.

Target: recombinant Plasmodium falciparum circumsporozoite protein (CSP) (Plasmodium falciparum) (UniProt P19597)
Assay: cell-based or functional assay

recombinant Plasmodium falciparum circumsporozoite protein (CSP) (Plasmodium falciparum), sequence (P19597 21-375 limits assumed): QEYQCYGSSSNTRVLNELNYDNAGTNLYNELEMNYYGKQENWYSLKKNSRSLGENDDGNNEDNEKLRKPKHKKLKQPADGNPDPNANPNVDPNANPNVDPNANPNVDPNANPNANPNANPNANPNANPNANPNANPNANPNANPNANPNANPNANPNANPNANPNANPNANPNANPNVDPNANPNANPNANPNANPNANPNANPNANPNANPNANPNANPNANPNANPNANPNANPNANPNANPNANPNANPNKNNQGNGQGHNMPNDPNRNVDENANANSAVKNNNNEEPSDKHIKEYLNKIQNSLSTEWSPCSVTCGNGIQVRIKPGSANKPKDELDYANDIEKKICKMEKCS

| Geo Mean EC50 (ug/ml), ADNKA, Donor 1 [µg/mL] | Geo Mean EC50 (ug/ml), ADNKA, Donor 2 [µg/mL] | Geo Mean EC50 (ug/ml), ADNKA, Donor 3 [µg/mL] | Geo Mean EC50 (ug/ml), ADNKA, Donor 4 [µg/mL] | GeoMean EC50 (M), ADCP [M] | GeoMean EC50 (M), ADCP repeat, n=4 [M] | Mean EC50 (pM), ADCP [pM] | Mean EC50 (pM), ADCP repeat, n=4 [pM] | Mean pEC50, ADCP | Mean pEC50, ADCP repeat, n=4 | Binder |
| --- | --- | --- | --- | --- | --- | --- | --- | --- | --- | --- |
| 0.0035 | 0.0037 | 0.0802 | 0.0214 | 1.18e-11 | 6.55e-12 | 11.8 | 6.6 | 10.9 | 11.2 | AB-000338 ALE LS (antibody, human IgG1, kappa, V domains shown) VH: QVQLVESGGGVVQPGRSLRLSCAASGFSFSTYGMHWIRQVPGKGLEWVAIIWHDGSKEFYADSVKGRFTISRDNSKKKLYLQMNSLRAEDTAIYYCVKDDFDSSGHSYFHYWGQGTLVTVSS VL: GVVMTQSPLSLPVTLGQPASISCRSSQSLVHSDGNTYVHWFQQRPGQSPRRLIYKVSNRDSGVPDRFSGSGSGTDFTLKISRVEAEDVGVYYCMQGTQWWTFGQGTKVEIKR |
| 0.0087 | 0.0057 | 0.0272 | 0.0067 | 7.21e-12 | – | 7.2 | – | 11.1 | – | AB-000338 DEA FV LS (antibody, V domains shown) VH: QVQLVESGGGVVQPGRSLRLSCAASGFSFSTYGMHWIRQVPGKGLEWVAIIWHDGSKEFYADSVKGRFTISRDNSKKKLYLQMNSLRAEDTAIYYCVKDDFDSSGHSYFHYWGQGTLVTVSS VL: GVVMTQSPLSLPVTLGQPASISCRSSQSLVHSDGNTYVHWFQQRPGQSPRRLIYKVSNRDSGVPDRFSGSGSGTDFTLKISRVEAEDVGVYYCMQGTQWWTFGQGTKVEIK |
| 0.0301 | 0.238 | 0.171 | 0.0887 | 9.19e-12 | 1.08e-11 | 9.2 | 10.8 | 11 | 11 | AB-000338 LS (antibody, V domains shown) VH: QVQLVESGGGVVQPGRSLRLSCAASGFSFSTYGMHWIRQVPGKGLEWVAIIWHDGSKEFYADSVKGRFTISRDNSKKKLYLQMNSLRAEDTAIYYCVKDDFDSSGHSYFHYWGQGTLVTVSS VL: GVVMTQSPLSLPVTLGQPASISCRSSQSLVHSDGNTYVHWFQQRPGQSPRRLIYKVSNRDSGVPDRFSGSGSGTDFTLKISRVEAEDVGVYYCMQGTQWWTFGQGTKVEIK |
